What was measured:
[1] = test system: HeLa Kyoto; assay: melting temperature (median over replicates), in situ; higher = more thermally stable
[2] = test system: HeLa Kyoto; assay: solubility change mitosis vs G1/S (difference of NP-40 vs SDS log2 ratios) (log2 ratio difference); higher = more soluble in mitosis
[3] = test system: HeLa Kyoto; assay: solubility in G1/S (NP-40 vs SDS abundance) (log2 ratio); higher = more soluble; details: cell cycle stage: G1/S
[4] = test system: HeLa Kyoto; assay: thermal stability score vs G1/S (z-score of summed log2 fold changes over temperatures); higher = more thermally stable than in G1/S
[5] = cell cycle stage: early G1 (4.5 h after nocodazole release)
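Throughout, for melting temperature (median over replicates), in situ: HeLa Kyoto cells synchronized by double thymidine or nocodazole block, proteins quantified by TMT10plex mass spectrometry, three independent biological replicates.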
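Throughout, for solubility change mitosis vs G1/S (difference of NP-40 vs SDS log2 ratios): synchronized HeLa Kyoto cells (double thymidine block for G1/S, nocodazole release for mitosis), protein amounts in NP-40 versus SDS lysates quantified by mass spectrometry, three biological replicates.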
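Throughout, for solubility in G1/S (NP-40 vs SDS abundance): HeLa Kyoto cells arrested at G1/S by double thymidine block, proteins quantified by TMT10plex mass spectrometry in mild NP-40 versus SDS extracts, three biological replicates.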
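Throughout, for thermal stability score vs G1/S (z-score of summed log2 fold changes over temperatures): synchronized HeLa Kyoto cells, proteins quantified by TMT10plex mass spectrometry, three biological replicates, mitosis taken 0.5 h after nocodazole release, G1/S directly after double thymidine block.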

Sequence of HACL1 (chain, as listed by the source): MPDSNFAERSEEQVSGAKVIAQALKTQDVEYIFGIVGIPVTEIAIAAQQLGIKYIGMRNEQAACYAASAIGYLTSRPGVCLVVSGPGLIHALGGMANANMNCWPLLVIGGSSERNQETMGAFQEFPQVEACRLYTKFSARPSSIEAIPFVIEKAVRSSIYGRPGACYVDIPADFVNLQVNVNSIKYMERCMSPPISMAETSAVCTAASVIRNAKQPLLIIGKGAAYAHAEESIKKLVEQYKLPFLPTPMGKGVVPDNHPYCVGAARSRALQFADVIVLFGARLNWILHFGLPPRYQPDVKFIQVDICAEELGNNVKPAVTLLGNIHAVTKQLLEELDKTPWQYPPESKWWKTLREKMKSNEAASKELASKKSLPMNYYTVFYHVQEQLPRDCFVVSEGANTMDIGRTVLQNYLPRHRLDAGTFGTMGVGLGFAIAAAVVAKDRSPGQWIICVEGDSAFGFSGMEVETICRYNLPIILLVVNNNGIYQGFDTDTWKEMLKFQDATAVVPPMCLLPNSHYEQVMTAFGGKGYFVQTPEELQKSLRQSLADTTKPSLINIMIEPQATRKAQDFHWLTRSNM

## MDEQALLGLNPNADSDFRQRALAYFEQLKISPDAWQVCAEALAQRTYSDDHVKFFCFQVLEHQVKYKYSELTTVQQQLIRETLISWLQAQMLNPQPEKTFIRNKAAQVFALLFVTEYLTKWPKFFFDILSVVDLNPRGVDLYLRILMAIDSELVDRDVVHTSEEARRNTLIKDTMREQCIPNLVESWYQILQNYQFTNSEVTCQCLEVVGAYVSWIDLSLIANDRFINMLLGHMSIEVLREEACDCLFEVVNKGMDPVDKMKLVESLCQVLQSAGFFSIDQEEDVDFLARFSKLVNGMGQSLIVSWSKLIKNGDIKNAQEALQAIETKVALMLQLLIHEDDDISSNIIGFCYDYLHILKQLTVLSDQQKANVEAIMLAVMKKLTYDEEYNFENEGEDEAMFVEYRKQLKLLLDRLAQVSPELLLASVRRVFSSTLQNWQTTRFMEVEVAIRLLYMLAEALPVSHGAHFSGDVSKASALQDMMRTLVTSGVSSYQHTSVTLEFFETVVRYEKFFTVEPQHIPCVLMAFLDHRGLRHSSAKVRSRTAYLFSRFVKSLNKQMNPFIEDILNRIQDLLELSPPENGHQSLLSSDDQLFIYETAGVLIVNSEYPAERKQALMRNLLTPLMEKFKILLEKLMLAQDEERQASLADCLNHAVGFASRTSKAFSNKQTVKQCGCSEVYLDCLQTFLPALSCPLQKDILRSGVRTFLHRMIICLEEEVLPFIPSASEHMLKDCEAKDLQEFIPLINQITAKFKIQVSPFLQQMFMPLLHAIFEVLLRPAEENDQSAALEKQMLRRSYFAFLQTVTGSGMSEVIANQGAENVERVLVTVIQGAVEYPDPIAQKTCFIILSKLVELWGGKDGPVGFADFVYKHIVPACFLAPLKQTFDLADAQTVLALSECAVTLKTIHLKRGPECVQYLQQEYLPSLQVAPEIIQEFCQALQQPDAKVFKNYLKVFFQRAKP [XPOT]
[1]; cell cycle stage: G1/S
  melting temperature: 49.5 °C
[1]; cell cycle stage: mitosis
  melting temperature: 50.1 °C
[2]
  solubility change mitosis (log2): -0.226
[3]
  solubility in G1/S (log2): -0.059
[4]; [5]
  thermal stability score: 1.65
[4]; cell cycle stage: mitosis
  thermal stability score: 3.04

## MAHSKTRTNDGKITYPPGVKEISDKISKEEMVRRLKMVVKTFMDMDQDSEEEKELYLNLALHLASDFFLKHPDKDVRLLVACCLADIFRIYAPEAPYTSPDKLKDIFMFITRQLKGLEDTKSPQFNRYFYLLENIAWVKSYNICFELEDSNEIFTQLYRTLFSVINNGHNQKVHMHMVDLMSSIICEGDTVSQELLDTVLVNLVPAHKNLNKQAYDLAKALLKRTAQAIEPYITNFFNQVLMLGKTSISDLSEHVFDLILELYNIDSHLLLSVLPQLEFKLKSNDNEERLQVVKLLAKMFGAKDSELASQNKPLWQCYLGRFNDIHVPIRLECVKFASHCLMNHPDLAKDLTEYLKVRSHDPEEAIRHDVIVSIVTAAKKDILLVNDHLLNFVRERTLDKRWRVRKEAMMGLAQIYKKYALQSAAGKDAAKQIAWIKDKLLHIYYQNSIDDRLLVERIFAQYMVPHNLETTERMKCLYYLYATLDLNAVKALNEMWKCQNLLRHQVKDLLDLIKQPKTDASVKAIFSKVMVITRNLPDPGKAQDFMKKFTQVLEDDEKIRKQLEVLVSPTCSCKQAEGCVREITKKLGNPKQPTNPFLEMIKFLLERIAPVHIDTESISALIKQVNKSIDGTADDEDEGVPTDQAIRAGLELLKVLSFTHPISFHSAETFESLLACLKMDDEKVAEAALQIFKNTGSKIEEDFPHIRSALLPVLHHKSKKGPPRQAKYAIHCIHAIFSSKETQFAQIFEPLHKSLDPSNLEHLITPLVTIGHIALLAPDQFAAPLKSLVATFIVKDLLMNDRLPGKKTTKLWVPDEEVSPETMVKIQAIKMMVRWLLGMKNNHSKSGTSTLRLLTTILHSDGDLTEQGKISKPDMSRLRLAAGSAIVKLAQEPCYHEIITLEQYQLCALAINDECYQVRQVFAQKLHKGLSRLRLPLEYMAICALCAKDPVKERRAHARQCLVKNINVRREYLKQHAAVSEKLLSLLPEYVVPYTIHLLAHDPDYVKVQDIEQLKDVKECLWFVLEILMAKNENNSHAFIRKMVENIKQTKDAQGPDDAKMNEKLYTVCDVAMNIIMSKSTTYSLESPKDPVLPARFFTQPDKNFSNTKNYLPPEMKSFFTPGKPKTTNVLGAVNKPLSSAGKQSQTKSSRMETVSNASSSSNPSSPGRIKGRLDSSEMDHSENEDYTMSSPLPGKKSDKRDDSDLVRSELEKPRGRKKTPVTEQEEKLGMDDLTKLVQEQKPKGSQRSRKRGHTASESDEQQWPEEKRLKEDILENEDEQNSPPKKGKRGRPPKPLGGGTPKEEPTMKTSKKGSKKKSGPPAPEEEEEEERQSGNTEQKSKSKQHRVSRRAQQRAESPESSAIESTQSTPQKGRGRPSKTPSPSQPKKNVRVGRSKQAATKENDSSEEVDVFQGSSPVDDIPQEETEEEEVSTVNVRRRSAKRERR [PDS5B]
[1]; cell cycle stage: G1/S
  melting temperature: 49.2 °C
[1]; cell cycle stage: mitosis
  melting temperature: 49.4 °C
[2]
  solubility change mitosis (log2): 0.216
[3]
  solubility in G1/S (log2): -0.302
[4]; [5]
  thermal stability score: -0.564
[4]; cell cycle stage: mitosis
  thermal stability score: 0.534

## MARELRALLLWGRRLRPLLRAPALAAVPGGKPILCPRRTTAQLGPRRNPAWSLQAGRLFSTQTAEDKEEPLHSIISSTESVQGSTSKHEFQAETKKLLDIVARSLYSEKEVFIRELISNASDALEKLRHKLVSDGQALPEMEIHLQTNAEKGTITIQDTGIGMTQEELVSNLGTIARSGSKAFLDALQNQAEASSKIIGQFGVGFYSAFMVADRVEVYSRSAAPGSLGYQWLSDGSGVFEIAEASGVRTGTKIIIHLKSDCKEFSSEARVRDVVTKYSNFVSFPLYLNGRRMNTLQAIWMMDPKDVREWQHEEFYRYVAQAHDKPRYTLHYKTDAPLNIRSIFYVPDMKPSMFDVSRELGSSVALYSRKVLIQTKATDILPKWLRFIRGVVDSEDIPLNLSRELLQESALIRKLRDVLQQRLIKFFIDQSKKDAEKYAKFFEDYGLFMREGIVTATEQEVKEDIAKLLRYESSALPSGQLTSLSEYASRMRAGTRNIYYLCAPNRHLAEHSPYYEAMKKKDTEVLFCFEQFDELTLLHLREFDKKKLISVETDIVVDHYKEEKFEDRSPAAECLSEKETEELMAWMRNVLGSRVTNVKVTLRLDTHPAMVTVLEMGAARHFLRMQQLAKTQEERAQLLQPTLEINPRHALIKKLNQLRASEPGLAQLLVDQIYENAMIAAGLVDDPRAMVGRLNELLVKALERH [TRAP1]
[1]; cell cycle stage: G1/S
  melting temperature: 52.8 °C
[1]; cell cycle stage: mitosis
  melting temperature: 52.7 °C
[2]
  solubility change mitosis (log2): -0.149
[3]
  solubility in G1/S (log2): -0.0668
[4]; [5]
  thermal stability score: 1.66
[4]; cell cycle stage: mitosis
  thermal stability score: -0.668

## HACL1
[1]; cell cycle stage: G1/S
  melting temperature: 56.6 °C
[1]; cell cycle stage: mitosis
  melting temperature: 56.1 °C
[2]
  solubility change mitosis (log2): -0.168
[3]
  solubility in G1/S (log2): -0.0836
[4]; [5]
  thermal stability score: -1.09
[4]; cell cycle stage: mitosis
  thermal stability score: -0.922

## MAGTSAPGSKRRSEPPAPRPGPPPGTGHPPSKRARGFSAAAAPDPDDPFGAHGDFTADDLEELDTLASQALSQCPAAARDVSSDHKVHRLLDGMSKNPSGKNRETVPIKDNFELEVLQAQYKELKEKMKVMEEEVLIKNGEIKILRDSLHQTESVLEEQRRSHFLLEQEKTQALSDKEKEFSKKLQSLQSELQFKDAEMNELRTKLQTSERANKLAAPSVSHVSPRKNPSVVIKPEACSPQFGKTSFPTKESFSANMSLPHPCQTESGYKPLVGREDSKPHSLRGDSIKQEEAQKSFVDSWRQRSNTQGSILINLLLKQPLIPGSSLSLCHLLSSSSESPAGTPLQPPGFGSTLAGMSGLRTTGSYDGSFSLSALREAQNLAFTGLNLVARNECSRDGDPAEGGRRAFPLCQLPGAVHFLPLVQFFIGLHCQALQDLAAAKRSGAPGDSPTHSSCVSSGVETNPEDSVCILEGFSVTALSILQHLVCHSGAVVSLLLSGVGADSAAGEGNRSLVHRLSDGDMTSALRGVADDQGQHPLLKMLLHLLAFSSAATGHLQASVLTQCLKVLVKLAENTSCDFLPRFQCVFQVLPKCLSPETPLPSVLLAVELLSLLADHDQLAPQLCSHSEGCLLLLLYMYITSRPDRVALETQWLQLEQEVVWLLAKLGVQSPLPPVTGSNCQCNVEVVRALTVMLHRQWLTVRRAGGPPRTDQQRRTVRCLRDTVLLLHGLSQKDKLFMMHCVEVLHQFDQVMPGVSMLIRGLPDVTDCEEAALDDLCAAETDVEDPEVECG [ATRIP]
[1]; cell cycle stage: G1/S
  melting temperature: 50.9 °C
[1]; cell cycle stage: mitosis
  melting temperature: 51.5 °C
[2]
  solubility change mitosis (log2): 0.065
[3]
  solubility in G1/S (log2): 0.243
[4]; [5]
  thermal stability score: 0.257
[4]; cell cycle stage: mitosis
  thermal stability score: 0.455
